# Results reported in US20240352434, “COMPOSITIONS COMPRISING A VARIANT CAS12I3 POLYPEPTIDE AND USES THEREOF” (Arbor Biotechnologies, Inc., published 2024).
# Where a chain is given by its changes, count along the chain named.
# T1: Cas12i3 K583R (Unidentified, K583R)
# T1 chain: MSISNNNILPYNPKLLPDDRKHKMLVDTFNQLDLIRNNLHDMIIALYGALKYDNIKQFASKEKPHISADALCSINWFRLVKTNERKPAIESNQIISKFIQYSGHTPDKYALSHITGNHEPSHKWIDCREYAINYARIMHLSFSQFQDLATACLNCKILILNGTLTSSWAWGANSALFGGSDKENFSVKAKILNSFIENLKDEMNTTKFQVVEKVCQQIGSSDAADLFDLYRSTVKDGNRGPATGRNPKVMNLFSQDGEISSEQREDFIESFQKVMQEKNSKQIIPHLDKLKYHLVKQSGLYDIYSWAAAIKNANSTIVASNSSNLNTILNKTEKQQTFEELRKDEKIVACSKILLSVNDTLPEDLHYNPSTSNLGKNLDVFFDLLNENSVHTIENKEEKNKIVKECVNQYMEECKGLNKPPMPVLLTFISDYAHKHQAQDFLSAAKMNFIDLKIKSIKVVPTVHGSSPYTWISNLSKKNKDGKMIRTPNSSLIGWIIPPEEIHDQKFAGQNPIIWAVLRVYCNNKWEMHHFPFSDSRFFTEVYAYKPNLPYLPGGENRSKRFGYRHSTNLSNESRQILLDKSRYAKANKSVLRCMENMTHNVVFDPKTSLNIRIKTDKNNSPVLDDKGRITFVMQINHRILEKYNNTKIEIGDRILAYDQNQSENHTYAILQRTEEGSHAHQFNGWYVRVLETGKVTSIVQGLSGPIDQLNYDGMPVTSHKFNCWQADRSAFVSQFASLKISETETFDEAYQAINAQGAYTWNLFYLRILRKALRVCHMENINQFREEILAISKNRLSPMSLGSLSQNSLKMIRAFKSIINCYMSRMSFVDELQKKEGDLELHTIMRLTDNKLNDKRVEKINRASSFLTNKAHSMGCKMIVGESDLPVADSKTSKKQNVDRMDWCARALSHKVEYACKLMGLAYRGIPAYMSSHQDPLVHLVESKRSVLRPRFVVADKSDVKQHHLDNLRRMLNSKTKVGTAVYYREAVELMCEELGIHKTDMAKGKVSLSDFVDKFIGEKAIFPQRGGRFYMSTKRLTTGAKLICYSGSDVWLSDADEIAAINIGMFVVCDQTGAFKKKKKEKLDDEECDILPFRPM
# T2: Cas12i3 R565G (Unidentified, R565G)
# T2 chain: T1 chain with R565G, R583K
# B1: AAVS1_T3 crRNA ; AAVS1_T3 target (ssRNA ; dsDNA)
# RNA: AUAGUGUGUCCUUAGUUGACAUGUGAGAAUGGUGCGUCCUAG
# DNA 1: GTGAGAATGGTGCGTCCTAG
# DNA 2: CTAGGACGCACCATTCTCAC
# B2: EMX1_T5 crRNA ; EMX1_T5 target (ssRNA ; dsDNA)
# RNA: AUAGUGUGUCCUUAGUUGACAUUAUUAUUCCCAUAGGGAAGG
# DNA 1: TATTATTCCCATAGGGAAGG
# DNA 2: CCTTCCCTATGGGAATAATA
# B3: VEGFA_T2 crRNA ; VEGFA_T2 target (ssRNA ; dsDNA)
# RNA: AUAGUGUGUCCUUAGUUGACAUAAUCCUCCACCAGUCAUGGU
# DNA 1: AATCCTCCACCAGTCATGGT
# DNA 2: ACCATGACTGGTGGAGGATT
# Target: T1, Cas12i3 K583R
# Experiment: cell_activity; fold change in % indels, HEK293T; PAM not stated in example
# Experimental: (§1) Approximately 16 hours prior to transfection, 100 μl of 25,000 HEK293T cells in DMEM/10% FBS+Pen/Strep were plated into each well of a 96-well plate. On the day of transfection, the cells were 70-90% confluent. For each well to be transfected, a mixture of 0.5 μl of Lipofectamine 2000 and 9.5 μl of Opti-MEM was prepared and then incubated at room temperature for 5-20 minutes (Solution 1). […] In the case of negative controls, the crRNA was not included in Solution 2. The solution 1 and solution 2 mixtures were mixed by pipetting up and down and then incubated at room temperature for 25 minutes. Following incubation, 20 μL of the Solution 1 and Solution 2 mixture were added dropwise to each well of a 96 well plate containing the cells. 72 hours post transfection, cells are trypsinized by adding 10 μL of TrypLE to the center of each well and incubated for approximately 5 minutes. 100 μL of D10 media was then added to each well and mixed to resuspend cells. The cells were then spun down at 500 g for 10 minutes, and the supernatant was discarded. QuickExtract buffer was added to ⅕ the amount of the original cell suspension volume. Cells were incubated at 65° C. for 15 minutes, 68° C. for 15 minutes, and 98° C. for 10 minutes.
# (§2) Samples for Next Generation Sequencing were prepared by two rounds of PCR. The first round (PCR1) was used to amplify specific genomic regions depending on the target. PCR1 products were purified by column purification. Round 2 PCR (PCR2) was done to add Illumina adapters and indexes. Reactions were then pooled and purified by column purification. Sequencing runs were done with a 150 cycle NextSeq v2.5 mid or high output kit.
row,Binder,binding signal
1,B1,1.81 fold of wild-type
2,B2,1.3 fold of wild-type
3,B3,1.74 fold of wild-type

# Target: T2, Cas12i3 R565G
# Experiment: as above
# Experimental: as §1, §2
row,Binder,binding signal
1,B1,1.86 fold of wild-type
2,B2,1.21 fold of wild-type
3,B3,0.73 fold of wild-type
